B1: PTPLAD1 (parent)
chain: YSFYMLTCIDMDWKVLTWLRYTLW

Variants of: B1
Assay: protein stability index of a GFP-peptide fusion (GPS, HEK-293T) (PSI 1-6); higher = more stable
Settings: c terminus: a fixed tail appended
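Note: lentivirally expressed fusions sorted by FACS into six bins by GFP to DsRed ratio, PSI derived from sequencing read proportions per bin multiplied by bin number.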

Row | Variant | protein stability index
1 | YSFYMLTCIDMDHKVLTWLRYTLW | 2.36
2 | YSFYMLTCIDMDMKVLTWLRYTLW | 1.66
3 | YSFYMLTCIDMDKKVLTWLRYTLW | 2.71
4 | YSFYMLTCIDMDYKVLTWLRYTLW | 4.08
5 | YSFYMLTCIDMDVKVLTWLRYTLW | 3.87
6 | YSFYMLTCIDMDDKVLTWLRYTLW | 1.74
7 | YSFYMLTCIDMDRKVLTWLRYTLW | 2.4
8 | YSFYMLTCIDMDNKVLTWLRYTLW | 4.03
9 | YSFYMLTCIDMDAKVLTWLRYTLW | 2.71
10 | YSFYMLTCIDMDWIVLTWLRYTLW | 2.92
11 | YSFYMLTCIDMDWHVLTWLRYTLW | 2.97
12 | YSFYMLTCIDMDWDVLTWLRYTLW | 2.16
13 | YSFYMLTCIDMDWAVLTWLRYTLW | 2.96
14 | YSFYMLTCIDMDWFVLTWLRYTLW | 1.85
15 | YSFYRLTCIDMDWKVLTWLRYTLW | 2.7
16 | YSFYILTCIDMDWKVLTWLRYTLW | 3.07
17 | YSFYNLTCIDMDWKVLTWLRYTLW | 2.21
18 | YSFYHLTCIDMDWKVLTWLRYTLW | 2.54
19 | YSFYKLTCIDMDWKVLTWLRYTLW | 2.41
20 | YSFYGLTCIDMDWKVLTWLRYTLW | 2.15
21 | YSFYQLTCIDMDWKVLTWLRYTLW | 2.64
22 | YSFYFLTCIDMDWKVLTWLRYTLW | 3.81
23 | YSFYSLTCIDMDWKVLTWLRYTLW | 1.4
24 | YSFYPLTCIDMDWKVLTWLRYTLW | 2.17

Row | Variant | protein stability index
25 | YSFYYLTCIDMDWKVLTWLRYTLW | 3.07
26 | YSFYDLTCIDMDWKVLTWLRYTLW | 2.49
27 | YSFYVLTCIDMDWKVLTWLRYTLW | 2.62
28 | YSFYMLTCCDMDWKVLTWLRYTLW | 1.58
29 | YSFYMLTCFDMDWKVLTWLRYTLW | 2.17
30 | YSFYMLTCDDMDWKVLTWLRYTLW | 2.78
31 | YSFYMLTCKDMDWKVLTWLRYTLW | 1.66
32 | YSFYMLTCYDMDWKVLTWLRYTLW | 1.74
33 | YSFYMLTCRDMDWKVLTWLRYTLW | 2.45
34 | YSFYMLTCADMDWKVLTWLRYTLW | 2.07
35 | YSFYMLTCQDMDWKVLTWLRYTLW | 2.85
36 | YSFYMLTCPDMDWKVLTWLRYTLW | 2.05
37 | YSFYMLTCNDMDWKVLTWLRYTLW | 2.78
38 | YSFYMLTCHDMDWKVLTWLRYTLW | 1.65
39 | YSFYMLTCWDMDWKVLTWLRYTLW | 1.96
40 | YSFYMLTCTDMDWKVLTWLRYTLW | 1.25
41 | YSFYMLTCMDMDWKVLTWLRYTLW | 2.6
42 | YSFYMLTCGDMDWKVLTWLRYTLW | 2.4
43 | YSFYMLTCIIMDWKVLTWLRYTLW | 2.96
44 | YSFYMLTCIAMDWKVLTWLRYTLW | 3.85
45 | YSFYMLTCIGMDWKVLTWLRYTLW | 4.97
46 | YSFYMLTCIEMDWKVLTWLRYTLW | 2.65
47 | YSFYMLTCIPMDWKVLTWLRYTLW | 1.95
48 | YSFYMLTCINMDWKVLTWLRYTLW | 2.6

Row | Variant | protein stability index
49 | YSFYMLTCIRMDWKVLTWLRYTLW | 3.09
50 | YSFYMLTCIQMDWKVLTWLRYTLW | 3.51
51 | YSFYMLTCITMDWKVLTWLRYTLW | 2.76
52 | YSFYMLTCIVMDWKVLTWLRYTLW | 3.62
53 | YSFYMLTCILMDWKVLTWLRYTLW | 1.38
54 | YSFYMLTCIFMDWKVLTWLRYTLW | 3.86
55 | YSFYMNTCIDMDWKVLTWLRYTLW | 2.48
56 | YSFYMDTCIDMDWKVLTWLRYTLW | 2.56
57 | YSFYMPTCIDMDWKVLTWLRYTLW | 2.45
58 | YSFYMYTCIDMDWKVLTWLRYTLW | 3.68
59 | YSFYMFTCIDMDWKVLTWLRYTLW | 2.33
60 | YSFYMHTCIDMDWKVLTWLRYTLW | 3.22
61 | YSFYMQTCIDMDWKVLTWLRYTLW | 1.31
62 | YSFYMKTCIDMDWKVLTWLRYTLW | 1.28
63 | YSFYMATCIDMDWKVLTWLRYTLW | 2.21
64 | YSFYMTTCIDMDWKVLTWLRYTLW | 2.85
65 | YHFYMLTCIDMDWKVLTWLRYTLW | 2.1
66 | YMFYMLTCIDMDWKVLTWLRYTLW | 2.26
67 | YIFYMLTCIDMDWKVLTWLRYTLW | 2.41
68 | YDFYMLTCIDMDWKVLTWLRYTLW | 1.35
69 | YQFYMLTCIDMDWKVLTWLRYTLW | 1.97
70 | YRFYMLTCIDMDWKVLTWLRYTLW | 2.84
71 | YAFYMLTCIDMDWKVLTWLRYTLW | 2.3
72 | YTFYMLTCIDMDWKVLTWLRYTLW | 1.56

Row | Variant | protein stability index
73 | YCFYMLTCIDMDWKVLTWLRYTLW | 1.93
74 | YYFYMLTCIDMDWKVLTWLRYTLW | 2.99
75 | YVFYMLTCIDMDWKVLTWLRYTLW | 1.58
76 | YWFYMLTCIDMDWKVLTWLRYTLW | 2.13
77 | YKFYMLTCIDMDWKVLTWLRYTLW | 5.08
78 | YPFYMLTCIDMDWKVLTWLRYTLW | 2.62
79 | YSFYMLTCIDKDWKVLTWLRYTLW | 3.05
80 | YSFYMLTCIDYDWKVLTWLRYTLW | 3.68
81 | YSFYMLTCIDADWKVLTWLRYTLW | 3.31
82 | YSFYMLTCIDDDWKVLTWLRYTLW | 1.56
83 | YSFYMLTCIDTDWKVLTWLRYTLW | 1.21
84 | YSFYMLTCIDHDWKVLTWLRYTLW | 1.6
85 | YSFYMLTCIDVDWKVLTWLRYTLW | 2.87
86 | YSFYMLTCIDWDWKVLTWLRYTLW | 2.13
87 | YSFYMLTCIDEDWKVLTWLRYTLW | 2.15
88 | YSFYMLTCIDCDWKVLTWLRYTLW | 3.43
89 | YSFYMLTCIDRDWKVLTWLRYTLW | 2.86
90 | YSFYMLTCIDIDWKVLTWLRYTLW | 2.67
91 | YSFYMLTCIDNDWKVLTWLRYTLW | 1.86
92 | YSFYMLTCIDFDWKVLTWLRYTLW | 2.15
93 | YSFYMLTCIDLDWKVLTWLRYTLW | 3.18
94 | YSFYMLTCIDPDWKVLTWLRYTLW | 2.49

— the supplement of paper PMC10567573
